Assay results published in paper PMC3834822.

Molecular target: full-length ParE-ParC55 fusion protein of S. pneumoniae topoisomerase IV (Streptococcus pneumoniae) (UniProt Q59961)
Assay: crystal structure; full-length ParE-ParC55 fusion protein with 34 bp V-site DNA (1:2.2 protein:DNA), MgCl2; sitting drop, 50 mM sodium citrate pH 5.0, 4-7% isopropanol; space group P4(2)2(1)2, 3.7 Å; no ATP

“full-length ParE-ParC55 fusion protein of S. pneumoniae topoisomerase IV (from UniProt Q59961 1-647; P72525 1-488) (enzyme)” gave a stoichiometry N of 2.
